Test results from patent US20140087995A1 (published 2014).
Numbered stars: 1 amine (or outer) side, 2 acyl side, 3 side chain; on linkers, the order of the positions; unused ones are H or OH. Bridge positions count the residues as written; N and C are the ends. Side chains are listed from the residue outwards. Ends that are not written are not given here. * marks the point of attachment. C20 diacid = O=C(O)CCCCCCCCCCCCCCCCCCC(=O)*; γGlu = O=C(O)[C@H](CCC(=O)[*:2])N[*:1]

T1: human amylin 3(a) receptor (human calcitonin receptor co-expressed with RAMP-3) (human, UniProt P30988 25-474; O60896 24-148, limits assumed)
T1 sequence (looked up) 1: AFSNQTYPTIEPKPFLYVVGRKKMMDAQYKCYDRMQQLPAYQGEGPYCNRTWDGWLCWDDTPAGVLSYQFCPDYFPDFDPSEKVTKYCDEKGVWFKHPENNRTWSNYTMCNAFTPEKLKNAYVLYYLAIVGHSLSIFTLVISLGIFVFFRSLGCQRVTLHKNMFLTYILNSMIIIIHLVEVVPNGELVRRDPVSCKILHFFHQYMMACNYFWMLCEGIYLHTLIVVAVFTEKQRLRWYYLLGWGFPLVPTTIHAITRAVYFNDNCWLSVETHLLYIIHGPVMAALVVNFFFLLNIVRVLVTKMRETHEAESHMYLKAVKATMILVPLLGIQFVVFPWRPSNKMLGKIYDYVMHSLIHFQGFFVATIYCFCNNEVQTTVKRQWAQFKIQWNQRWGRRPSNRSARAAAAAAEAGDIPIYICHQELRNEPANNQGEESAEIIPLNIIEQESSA
T1 sequence (looked up) 2: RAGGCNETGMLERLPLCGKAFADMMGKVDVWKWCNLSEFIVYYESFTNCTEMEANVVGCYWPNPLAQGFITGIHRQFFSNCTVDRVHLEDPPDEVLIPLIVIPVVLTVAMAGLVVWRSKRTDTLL

T2: human calcitonin receptor (human, UniProt P30988 25-474)
T2 sequence (looked up): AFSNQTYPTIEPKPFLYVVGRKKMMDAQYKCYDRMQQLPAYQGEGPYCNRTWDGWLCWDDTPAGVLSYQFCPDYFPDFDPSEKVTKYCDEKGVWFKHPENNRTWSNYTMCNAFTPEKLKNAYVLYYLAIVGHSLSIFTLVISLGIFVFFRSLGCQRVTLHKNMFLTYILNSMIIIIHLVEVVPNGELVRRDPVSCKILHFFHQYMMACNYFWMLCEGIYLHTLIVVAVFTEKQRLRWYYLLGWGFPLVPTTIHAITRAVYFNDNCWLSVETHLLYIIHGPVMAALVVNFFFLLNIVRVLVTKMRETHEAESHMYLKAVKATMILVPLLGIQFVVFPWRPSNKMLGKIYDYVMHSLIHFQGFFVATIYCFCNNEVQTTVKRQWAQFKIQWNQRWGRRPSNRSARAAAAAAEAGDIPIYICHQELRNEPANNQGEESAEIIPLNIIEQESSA


Legend:
[1] = biological target: T1, human amylin 3(a) receptor (human …); experiment: cell-based or functional assay
[2] = biological target: T2, human calcitonin receptor; experiment: cell-based or functional assay

hAmylin-R funct. EC50 [1] [nM]	Ratio hCT/hAmylin funct. [2]	hCTR funct. EC50 [2] [nM]	Binder
0.13	13.3	1.73	K([γGlu-C20 diacid])CNTATCATQRLAHFLRHSSPNFGAIPSSTNVGHNTY-NH2 (disulfide 2-7; N-terminus assumed; SMILES CC[C@H](C)[C@H](NC(=O)[C@H](C)NC(=O)CNC(=O)[C@H](Cc1ccccc1)NC(=O)[C@H](CC(N)=O)NC(=O)[C@@H]1CCCN1C(=O)[C@H](CO)NC(=O)[C@H](CO)NC(=O)[C@H](Cc1c[nH]cn1)NC(=O)[C@H](CCCNC(=N)N)NC(=O)[C@H](CC(C)C)NC(=O)[C@H](Cc1ccccc1)NC(=O)[C@H](Cc1c[nH]cn1)NC(=O)[C@H](C)NC(=O)[C@H](CC(C)C)NC(=O)[C@H](CCCNC(=N)N)NC(=O)[C@H](CCC(N)=O)NC(=O)[C@@H](NC(=O)[C@H](C)NC(=O)[C@@H]1CSSC[C@H](NC(=O)[C@@H](N)CCCCNC(=O)CC[C@H](NC(=O)CCCCCCCCCCCCCCCCCCC(=O)O)C(=O)O)C(=O)N[C@@H](CC(N)=O)C(=O)N[C@@H]([C@@H](C)O)C(=O)N[C@@H](C)C(=O)N[C@@H]([C@@H](C)O)C(=O)N1)[C@@H](C)O)C(=O)N1CCC[C@H]1C(=O)N[C@@H](CO)C(=O)N[C@@H](CO)C(=O)N[C@H](C(=O)N[C@@H](CC(N)=O)C(=O)N[C@H](C(=O)NCC(=O)N[C@@H](Cc1c[nH]cn1)C(=O)N[C@@H](CC(N)=O)C(=O)N[C@H](C(=O)N[C@@H](Cc1ccc(O)cc1)C(N)=O)[C@@H](C)O)C(C)C)[C@@H](C)O, also called compound 81)
0.146	26.6	3.88	K([γGlu-C20 diacid])CNTATCATQRLAHFLRHSSPNFGAIPSSTNVGRNTY-NH2 (disulfide 2-7; N-terminus assumed; SMILES CC[C@H](C)[C@H](NC(=O)[C@H](C)NC(=O)CNC(=O)[C@H](Cc1ccccc1)NC(=O)[C@H](CC(N)=O)NC(=O)[C@@H]1CCCN1C(=O)[C@H](CO)NC(=O)[C@H](CO)NC(=O)[C@H](Cc1c[nH]cn1)NC(=O)[C@H](CCCNC(=N)N)NC(=O)[C@H](CC(C)C)NC(=O)[C@H](Cc1ccccc1)NC(=O)[C@H](Cc1c[nH]cn1)NC(=O)[C@H](C)NC(=O)[C@H](CC(C)C)NC(=O)[C@H](CCCNC(=N)N)NC(=O)[C@H](CCC(N)=O)NC(=O)[C@@H](NC(=O)[C@H](C)NC(=O)[C@@H]1CSSC[C@H](NC(=O)[C@@H](N)CCCCNC(=O)CC[C@H](NC(=O)CCCCCCCCCCCCCCCCCCC(=O)O)C(=O)O)C(=O)N[C@@H](CC(N)=O)C(=O)N[C@@H]([C@@H](C)O)C(=O)N[C@@H](C)C(=O)N[C@@H]([C@@H](C)O)C(=O)N1)[C@@H](C)O)C(=O)N1CCC[C@H]1C(=O)N[C@@H](CO)C(=O)N[C@@H](CO)C(=O)N[C@H](C(=O)N[C@@H](CC(N)=O)C(=O)N[C@H](C(=O)NCC(=O)N[C@@H](CCCNC(=N)N)C(=O)N[C@@H](CC(N)=O)C(=O)N[C@H](C(=O)N[C@@H](Cc1ccc(O)cc1)C(N)=O)[C@@H](C)O)C(C)C)[C@@H](C)O, also called compound 85)

Continued, binder first:

Binder	hAmylin-R funct. EC50 [1] [nM]	Ratio hCT/hAmylin funct. [2]	hCTR funct. EC50 [2] [nM]
K([γGlu-C20 diacid])CNTATCATQRLANFLRHSSPNFGAIPSSTNVGRNTY-NH2 (disulfide 2-7; N-terminus assumed; SMILES CC[C@H](C)[C@H](NC(=O)[C@H](C)NC(=O)CNC(=O)[C@H](Cc1ccccc1)NC(=O)[C@H](CC(N)=O)NC(=O)[C@@H]1CCCN1C(=O)[C@H](CO)NC(=O)[C@H](CO)NC(=O)[C@H](Cc1c[nH]cn1)NC(=O)[C@H](CCCNC(=N)N)NC(=O)[C@H](CC(C)C)NC(=O)[C@H](Cc1ccccc1)NC(=O)[C@H](CC(N)=O)NC(=O)[C@H](C)NC(=O)[C@H](CC(C)C)NC(=O)[C@H](CCCNC(=N)N)NC(=O)[C@H](CCC(N)=O)NC(=O)[C@@H](NC(=O)[C@H](C)NC(=O)[C@@H]1CSSC[C@H](NC(=O)[C@@H](N)CCCCNC(=O)CC[C@H](NC(=O)CCCCCCCCCCCCCCCCCCC(=O)O)C(=O)O)C(=O)N[C@@H](CC(N)=O)C(=O)N[C@@H]([C@@H](C)O)C(=O)N[C@@H](C)C(=O)N[C@@H]([C@@H](C)O)C(=O)N1)[C@@H](C)O)C(=O)N1CCC[C@H]1C(=O)N[C@@H](CO)C(=O)N[C@@H](CO)C(=O)N[C@H](C(=O)N[C@@H](CC(N)=O)C(=O)N[C@H](C(=O)NCC(=O)N[C@@H](CCCNC(=N)N)C(=O)N[C@@H](CC(N)=O)C(=O)N[C@H](C(=O)N[C@@H](Cc1ccc(O)cc1)C(N)=O)[C@@H](C)O)C(C)C)[C@@H](C)O, also called compound 79) [N^ε1-[(4S)-4-carboxy-4-(19-carboxynonadecanoylamino)butanoyl]-[Arg17,Pro21,Pro27,Arg34]-h-amylin]	0.161	24.5	3.94
K([γGlu-C20 diacid])CNTATCATQRLAEFLRHSSPNFGAIPSSTNVGPRTY-NH2 (disulfide 2-7; N-terminus assumed; SMILES CC[C@H](C)[C@H](NC(=O)[C@H](C)NC(=O)CNC(=O)[C@H](Cc1ccccc1)NC(=O)[C@H](CC(N)=O)NC(=O)[C@@H]1CCCN1C(=O)[C@H](CO)NC(=O)[C@H](CO)NC(=O)[C@H](Cc1c[nH]cn1)NC(=O)[C@H](CCCNC(=N)N)NC(=O)[C@H](CC(C)C)NC(=O)[C@H](Cc1ccccc1)NC(=O)[C@H](CCC(=O)O)NC(=O)[C@H](C)NC(=O)[C@H](CC(C)C)NC(=O)[C@H](CCCNC(=N)N)NC(=O)[C@H](CCC(N)=O)NC(=O)[C@@H](NC(=O)[C@H](C)NC(=O)[C@@H]1CSSC[C@H](NC(=O)[C@@H](N)CCCCNC(=O)CC[C@H](NC(=O)CCCCCCCCCCCCCCCCCCC(=O)O)C(=O)O)C(=O)N[C@@H](CC(N)=O)C(=O)N[C@@H]([C@@H](C)O)C(=O)N[C@@H](C)C(=O)N[C@@H]([C@@H](C)O)C(=O)N1)[C@@H](C)O)C(=O)N1CCC[C@H]1C(=O)N[C@@H](CO)C(=O)N[C@@H](CO)C(=O)N[C@H](C(=O)N[C@@H](CC(N)=O)C(=O)N[C@H](C(=O)NCC(=O)N1CCC[C@H]1C(=O)N[C@@H](CCCNC(=N)N)C(=O)N[C@H](C(=O)N[C@@H](Cc1ccc(O)cc1)C(N)=O)[C@@H](C)O)C(C)C)[C@@H](C)O)	0.376	17	6.38
K([γGlu-C20 diacid])CNTATCATQRLAEFLRHSSPNFGAIPSSTNVGPETY-NH2 (disulfide 2-7; N-terminus assumed; SMILES CC[C@H](C)[C@H](NC(=O)[C@H](C)NC(=O)CNC(=O)[C@H](Cc1ccccc1)NC(=O)[C@H](CC(N)=O)NC(=O)[C@@H]1CCCN1C(=O)[C@H](CO)NC(=O)[C@H](CO)NC(=O)[C@H](Cc1c[nH]cn1)NC(=O)[C@H](CCCNC(=N)N)NC(=O)[C@H](CC(C)C)NC(=O)[C@H](Cc1ccccc1)NC(=O)[C@H](CCC(=O)O)NC(=O)[C@H](C)NC(=O)[C@H](CC(C)C)NC(=O)[C@H](CCCNC(=N)N)NC(=O)[C@H](CCC(N)=O)NC(=O)[C@@H](NC(=O)[C@H](C)NC(=O)[C@@H]1CSSC[C@H](NC(=O)[C@@H](N)CCCCNC(=O)CC[C@H](NC(=O)CCCCCCCCCCCCCCCCCCC(=O)O)C(=O)O)C(=O)N[C@@H](CC(N)=O)C(=O)N[C@@H]([C@@H](C)O)C(=O)N[C@@H](C)C(=O)N[C@@H]([C@@H](C)O)C(=O)N1)[C@@H](C)O)C(=O)N1CCC[C@H]1C(=O)N[C@@H](CO)C(=O)N[C@@H](CO)C(=O)N[C@H](C(=O)N[C@@H](CC(N)=O)C(=O)N[C@H](C(=O)NCC(=O)N1CCC[C@H]1C(=O)N[C@@H](CCC(=O)O)C(=O)N[C@H](C(=O)N[C@@H](Cc1ccc(O)cc1)C(N)=O)[C@@H](C)O)C(C)C)[C@@H](C)O)	0.161	5.2	0.841
K([γGlu-C20 diacid])CNTATCATQRLAEFLRHSSPNFGAIPSSTNVGRETY-NH2 (disulfide 2-7; N-terminus assumed; SMILES CC[C@H](C)[C@H](NC(=O)[C@H](C)NC(=O)CNC(=O)[C@H](Cc1ccccc1)NC(=O)[C@H](CC(N)=O)NC(=O)[C@@H]1CCCN1C(=O)[C@H](CO)NC(=O)[C@H](CO)NC(=O)[C@H](Cc1c[nH]cn1)NC(=O)[C@H](CCCNC(=N)N)NC(=O)[C@H](CC(C)C)NC(=O)[C@H](Cc1ccccc1)NC(=O)[C@H](CCC(=O)O)NC(=O)[C@H](C)NC(=O)[C@H](CC(C)C)NC(=O)[C@H](CCCNC(=N)N)NC(=O)[C@H](CCC(N)=O)NC(=O)[C@@H](NC(=O)[C@H](C)NC(=O)[C@@H]1CSSC[C@H](NC(=O)[C@@H](N)CCCCNC(=O)CC[C@H](NC(=O)CCCCCCCCCCCCCCCCCCC(=O)O)C(=O)O)C(=O)N[C@@H](CC(N)=O)C(=O)N[C@@H]([C@@H](C)O)C(=O)N[C@@H](C)C(=O)N[C@@H]([C@@H](C)O)C(=O)N1)[C@@H](C)O)C(=O)N1CCC[C@H]1C(=O)N[C@@H](CO)C(=O)N[C@@H](CO)C(=O)N[C@H](C(=O)N[C@@H](CC(N)=O)C(=O)N[C@H](C(=O)NCC(=O)N[C@@H](CCCNC(=N)N)C(=O)N[C@@H](CCC(=O)O)C(=O)N[C@H](C(=O)N[C@@H](Cc1ccc(O)cc1)C(N)=O)[C@@H](C)O)C(C)C)[C@@H](C)O)	0.421	6.5	2.75
